Tests used:
VEGF165 [1] = molecular target: T1, VEGF165 (Homo sapiens, UniProt P15692-4 P15692-4:27-191); test: filter; 37 C; settings: tags: carrier-free, Sf 21 insect cell expressed, R & D Systems; chain copies: 2 (inferred)
Experimental: (§1) Nucleic Acid Ligands radiolabeled during transcription by incorporation of α-[³²P]-labeled NTPs, or after synthesis using γ-[³²P]-ATP and T4 polynucleotide kinase, were incubated in low concentration (between 20 and 70 pM) with varying concentrations of VEGF or other growth factors at 37° C. for 15 minutes. Incubations were in TBS, PBS, or HEPES-buffered saline (HBS), pH 7.4, with or without the addition of supplemental divalent cations. Samples were passed through prewashed 0.45 μ Type HA filters (Millipore) followed by a 5-10 ml wash with binding buffer. Filters were immersed in scintillant and counted to quantitate the amount of protein-bound RNA retained by each filter. The equilibrium dissociation constant (KD) of Nucleic Acid Ligand binding to a specific protein was calculated from the data points as described in Green et al. (1996) Biochem. 35: 14413-14424.
Stabilization of oligonucleotides to nucleases is likely to be critical to their success as therapeutic or diagnostic agents. Unfortunately, 2′-OMe-modified nucleoside triphosphates are not generally accepted as substrates by RNA polymerases under standard reaction conditions. However, 2′-OMe purines may be introduced into a specific oligonucleotide by chemical synthesis. […] To identify those purine positions for which 2′-OMe substitution is compatible with high affinity binding to VEGF, several syntheses of ligands t2, t22 and t44 were prepared in which five or six purines at a time were partially substituted with the modified nucleotide (described in Example 3). Affinity selection of each partially substituted library was used to isolate those molecules that retained substantial affinity for VEGF.
Target sequence in this assay (P15692 other isoform, or with tags, fused parts or gaps): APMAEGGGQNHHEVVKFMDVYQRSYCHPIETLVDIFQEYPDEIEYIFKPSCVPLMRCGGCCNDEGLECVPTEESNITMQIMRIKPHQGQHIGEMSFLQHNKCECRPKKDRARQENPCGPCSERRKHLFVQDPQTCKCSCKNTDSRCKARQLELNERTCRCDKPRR

VEGF164 [2] = molecular target: T2, VEGF164 (Mus musculus, UniProt Q00731-2 Q00731-2:27-190); test: filter; bound equally well to human and murine VEGF; settings: tags: carrier-free, Sf21-expressed, R&D Systems; chain copies: 2
T2 sequence: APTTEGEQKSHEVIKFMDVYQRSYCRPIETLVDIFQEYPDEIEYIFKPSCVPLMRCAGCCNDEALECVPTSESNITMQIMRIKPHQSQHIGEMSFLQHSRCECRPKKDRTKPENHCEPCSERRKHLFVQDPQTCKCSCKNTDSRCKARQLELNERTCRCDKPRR
Experimental: as §1
(§2) VEGF is a highly conserved protein across species, the human VEGF₁₆₅ and mouse VEGF₁₆₄ isoforms showing 88% sequence identity. The truncated, 2′-OMe-substituted ligands bound equally well to human and murine VEGF. […] Heterodimers between VEGF and PIGF have recently been isolated from the supernatants of both normal and tumor-derived cell lines, and such heterodimers show activity in binding to one of two high affinity VEGF receptors and in inducing responses in cultured endothelial cells. […]

VEGF165 [3] = molecular target: T1, VEGF165; test: filter; s.d. 36; 37 C; divalent cation independent; settings: tags: carrier-free, Sf 21 insect cell expressed, R & D Systems; chain copies: 2 (inferred)
Experimental: as §1
(§3) 2′OH nucleotides are indicated in bold, and 2′OMe nucleotides are indicated in plain text.

VEGF121 = VEGF121 (Homo sapiens, UniProt P15692-9 P15692-9:27-147); test: filter; no measurable affinity; settings: tags: carrier-free, E. coli expressed, R & D Systems; chain copies: 2 (inferred)
PlGF = molecular target: T3, PlGF (UniProt P49763-2 P49763-2:19-149); test: filter; no binding to PlGF homodimer; settings: tags: carrier-free, E. coli expressed, R & D Systems; chain copies: 2 (stated homodimer)
T3 sequence: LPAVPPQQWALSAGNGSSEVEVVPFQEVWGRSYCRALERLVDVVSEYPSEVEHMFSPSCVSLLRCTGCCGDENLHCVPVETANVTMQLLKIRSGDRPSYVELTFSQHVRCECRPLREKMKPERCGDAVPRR
Experimental: as §1
VEGF is a highly conserved protein across species, the human VEGF₁₆₅ and mouse VEGF₁₆₄ isoforms showing 88% sequence identity. The truncated, 2′-OMe-substituted ligands bound equally well to human and murine VEGF. […] Heterodimers between VEGF and PIGF have recently been isolated from the supernatants of both normal and tumor-derived cell lines, and such heterodimers show activity in binding to one of two high affinity VEGF receptors and in inducing responses in cultured endothelial cells. The biological relevance of VEGF/PIGF heterodimers is unknown. […] Alternatively, the structure of the VEGF subunit may be altered by participation in a heterodimer with PIGF with consequent distortion of the Nucleic Acid Ligand binding surface.

VEGF165 [4] = molecular target: T1, VEGF165; test: filter; 37 C; variable region starts CCCC in table, CGCC in listing; settings: tags: carrier-free, Sf 21 insect cell expressed, R & D Systems; chain copies: 2 (inferred)
Experimental: as §1

VEGF165 [5] = molecular target: T1, VEGF165; test: filter; 37 C; variable region ends GGCT in table, GGGU in listing; settings: tags: carrier-free, Sf 21 insect cell expressed, R & D Systems; chain copies: 2 (inferred)
Experimental: as §1

VEGF165 [6] = molecular target: T1, VEGF165; test: filter; 37 C; settings: tags: carrier-free, Sf 21 insect cell expressed, R & D Systems; chain copies: 2 (inferred); remark: listed apart in the source
Experimental: as §1
The shared primary and secondary structural motifs that define each sequence family hint at the minimal sequence elements required for high affinity binding to VEGF. Nested truncations of a representative ligand from each family (indicated by gray boxes in Table 2) were produced by chemical synthesis and their relative affinities for VEGF were determined (Table 3). Truncated versions of ligands VP30.22, VP30.2 and VT30.44 were prepared by chemical synthesis and their affinities for VEGF were determined as described in Example 3. Initial truncations (t22, t2, t44) were further refined by synthesis of oligonucleotides with additional bases lacking from the 5′ and/or 3′ ends. In order to initiate the chemical synthesis, the 3′-most nucleotide of several of the ligands was modified either by substitution of 2′-OH-cytidine for 2′-F-cytidine (underlined) or by addition of a 3′-3′-linked deoxythymidine “cap” (asterisks). The length of each oligonucleotide (minus the cap) and its high affinity KD for binding to VEGF are shown.

VEGF165 [7] = molecular target: T1, VEGF165; test: filter; s.d. 50; 37 C; divalent cation independent; settings: tags: carrier-free, Sf 21 insect cell expressed, R & D Systems; chain copies: 2 (inferred)
Experimental: as §1, §3

VEGF165 [8] = molecular target: T1, VEGF165; test: filter; divalent cations replaced with EGTA; CaCl2 restores binding, MgCl2 does not; settings: tags: carrier-free, Sf 21 insect cell expressed, R & D Systems; chain copies: 2 (inferred)
Experimental: as §1
Ligands in Families 1 and 2 were selected in the presence of magnesium cations while Family 3 ligands were selected in a buffer containing both magnesium and calcium. Since divalent cations may contribute to RNA/protein interactions through nonspecific or specific stabilization of high affinity RNA structures, we asked whether magnesium and/or calcium were required for the high affinity binding of representative ligands to VEGF.

VEGF164 [9] = molecular target: T2, VEGF164; test: filter; binds equally well to human and murine VEGF; settings: tags: carrier-free, Sf 21 insect cell expressed, R & D Systems; chain copies: 2 (inferred)
Experimental: as §1, §2

VEGF165 [10] = molecular target: T1, VEGF165; test: filter; s.d. 11; text gives 49 pM; 37 C; calcium required; settings: tags: carrier-free, Sf 21 insect cell expressed, R & D Systems; chain copies: 2 (inferred)
Experimental: as §1, §3

VEGF121, sequence (P15692 other isoform, or with tags, fused parts or gaps): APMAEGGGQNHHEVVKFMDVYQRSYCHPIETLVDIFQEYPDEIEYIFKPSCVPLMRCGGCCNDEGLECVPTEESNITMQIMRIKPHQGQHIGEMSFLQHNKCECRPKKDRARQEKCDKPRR

GACGAUGCGGUAGGAAGAAUUGGAAGCGC (ssRNA, 2'-F pyrimidines, 2'-OMe purines except 2'-OH G10, A12) [t22OMe (OH-10,12)]
Kd (VEGF165 [1]): 0.02 nM

GCGAACCGAUGGAAUUUUUGGACGCUCGC (ssRNA, 2'-F pyrimidines; 2'-OMe purines except 2'-OH A5 and G20)
binding result (VEGF164 [2]): binds

GCGGAAUCAGUGAAUGCUUAUACAUCCGC (ssRNA, 2'-F pyrimidines, 2'-OMe purines except 2'-OH A5, A6) [t44OMe (OH-5,6)]
Kd (VEGF165 [1]): 0.04 nM

GCGGUAGGAAGAAUUGGAAGCGC (ssRNA, 2'-F pyrimidines; 2'-OMe purines except 2'-OH G4 and A6)
binding result (VEGF164 [2]): binds

GACGAUGCGGUAGGAAGAAUUGGAAGCGC (ssRNA, 2'-F pyrimidines, 2'-OMe purines except 2'-OH G10, G22) [t22OMe (OH-10,22)]
Kd (VEGF165 [1]): 4 nM

GCGGUAGGAAGAAUUGGAAGCGC (ssRNA, 2'-F pyrimidines, 2'-OMe purines except 2'-OH G4, A6)
Kd (VEGF165 [3]): 0.067 nM
binding result (VEGF121): no binding
binding result (PlGF): no binding

B1: VP30.29 (ssRNA)
RNA: GGGAGGACGAUGCGGCGCCACUUUGGAAGUUAUUGAAUUUCGCGUCAGACGACUCGCCCGA
modifications: 2'-F pyrimidines
Kd (VEGF165 [4]): 0.007 nM

B2: VP40.39 (ssRNA)
RNA: GGGAGGACGAUGCGGCAGUUAAUUAACUUGAGUUGUGAUGUGUGUCGUUAUGGGUCAGACGACUCGCCCGA
modifications: 2'-F pyrimidines
Kd (VEGF165 [5]): 73 nM

GACGAUGCGGUAGGAAGAAUUGGAAGCGC (ssRNA, 2'-F pyrimidines, 2'-OMe purines except 2'-OH A12, G22) [t22OMe (OH-12,22)]
Kd (VEGF165 [1]): 0.09 nM

GGAAUCAGUGAAUGCUUAUACAUCC (ssRNA, 2'-F pyrimidines except 2'-OH C25) [t44b]
Kd (VEGF165 [6]): 0.06 nM

GCGAACCGAUGGAAUUUUUGGACGCUCGC (ssRNA, 2'-F pyrimidines, 2'-OMe purines except 2'-OH A5, G20)
binding result (VEGF121): no binding
Kd (VEGF165 [7]): 0.14 nM
binding result (PlGF): no binding

CGGAAUCAGUGAAUGCUUAUACAUCCG (ssRNA, 2'-F pyrimidines) [t44a]
Kd (VEGF165 [6]): 0.01 nM

CGGAAUCAGUGAAUGCUUAUACAUCCG (ssRNA, 2'-F pyrimidines, 2'-OMe purines except 2'-OH A4, A5) [t44-OMe]
binding result (VEGF121): no binding
Kd (VEGF165 [8]): > 100 nM
binding result (VEGF164 [9]): binds
binding result (PlGF): no binding
Kd (VEGF165 [10]): 0.051 nM

GGCGAACCGAUGGAAUUUUUGGACGCUCGCC (ssRNA, 2'-F pyrimidines, 2'-OMe purines except 2'-OH A6, G21) [t2OMe (OH-6,21)]
Kd (VEGF165 [1]): 0.06 nM

GGCGAACCGAUGGAAUUUUUGGACGCUCGCC (ssRNA, 2'-F pyrimidines, 2'-OMe purines except 2'-OH G21) [t2OMe (OH-21)]
Kd (VEGF165 [1]): 20 nM

GGCGAACCGAUGGAAUUUUUGGACGCUCGCC (ssRNA, 2'-F pyrimidines, 2'-OMe purines except 2'-OH A6) [t2OMe (OH-6)]
Kd (VEGF165 [1]): 0.5 nM

GACGAUGCGGUAGGAAGAAUUGGAAGCGC (ssRNA, 2'-F pyrimidines, 2'-OMe purines except 2'-OH G10, A12, G22) [t22OMe (OH-10,12,22)]
Kd (VEGF165 [1]): 0.01 nM

Source: patent US20030114404, “Vascular endothelial growth factor (VEGF) nucleic acid ligand complexes” (Gilead Sciences, Inc., published 2003)
